Data as given in patent US20030027246A1, “Immunogenic peptides derived from prostate-specific membrane antigen (PSMA) and uses thereof” (priority 2000, published 2003).

Biological target: membrane-bound HLA-A0201 molecule on T2 cells (human)
Assay: T2 cell HLA-A0201 stabilisation at 125.0 µM peptide, BB7.2 staining, flow cytometry
Conditions: remark: other sources report otherwise

Row | Fluorescence Index (FI) | Binder
1 | 0.7 | ELAHYDVLL [CLP-330]
2 | 1.3 | VLAGGFFLL [CLP-328]
